Laboratory results as given in paper PMC10710473, “The DNA glycosylase NEIL2 is protective during SARS-CoV-2 infection”.

How the values were obtained:
NEIL2 (rNEIL2) [1] = target: T1, NEIL2 (rNEIL2) (UniProt Q969S2 1-332); assay: EMSA; details: protein: recombinant; tags: C-terminal 6xHis; chain copies: 12; label: 32P end label; natively folded, minor misfolded band
T1 sequence: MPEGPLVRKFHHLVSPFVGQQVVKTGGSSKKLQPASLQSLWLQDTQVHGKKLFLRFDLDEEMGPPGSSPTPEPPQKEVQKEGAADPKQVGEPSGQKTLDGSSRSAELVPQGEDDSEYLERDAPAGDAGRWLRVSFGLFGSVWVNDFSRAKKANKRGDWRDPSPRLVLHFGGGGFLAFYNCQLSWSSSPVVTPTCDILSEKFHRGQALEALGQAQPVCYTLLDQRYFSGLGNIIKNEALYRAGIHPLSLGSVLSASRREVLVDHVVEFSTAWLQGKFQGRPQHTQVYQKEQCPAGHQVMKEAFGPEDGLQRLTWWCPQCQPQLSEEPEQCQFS

NEIL2 (rNEIL2) [2] = target: T1, NEIL2 (rNEIL2); assay: EMSA; 1 nM RNA, no yeast tRNA; Hill 2.428; details: protein: recombinant; tags: C-terminal 6xHis; label: 32P end label
NEIL2 (rNEIL2) [3] = target: T1, NEIL2 (rNEIL2); assay: EMSA; 1 nM RNA, compact band at 75 nM NEIL2; Kd not measurable (aggregates); details: protein: recombinant; tags: C-terminal 6xHis; chain copies: 12; label: 32P end label; folded; partly aggregates

B1: CoV-2 5'-UTR RNA (full length, 297 nt) (structured_RNA)
RNA: AUUAAAGGUUUAUACCUUCCCAGGUAACAAACCAACCAACUUUCGAUCUCUUGUAGAUCUGUUCUCUAAACGAACUUUAAAAUCUGUGUGGCUGUCACUCGGCUGCAUGCUUAGUGCACUCACGCAGUAUAAUUAAUAACUAAUUACUGUCGUUGACAGGACACGAGUAACUCGUCUAUCUUCUGCAGGCUGCUUACGGUUUCGUCCGUGUUGCAGCCGAUCAUCAGCACAUCUAGGUUUUGUCCGGGUGUGACCGAAAGGUAAGAUGGAGAGCCUUGUCCCUGGUUUCAACGAGAA
B1 was tested, and the Kd (NEIL2 (rNEIL2) [1]) was 44.2 nM.

UCCCCAUGUGAUUUUAAUAGCUUCUUAGGAGAAUGACA (mixed, DNA bases may be present) [CoV-2 3'-UTR ZnF-site (38-mer)] showed a Kd (NEIL2 (rNEIL2) [2]) of 77.2 nM.

B2: CoV-2 3'-UTR RNA (full length, 200 nt) (structured_RNA)
RNA: CAAUCUUUAAUCAGUGUGUAACAUUAGGGAGGACUUGAAAGAGCCACCACAUUUUCACCGAGGCCACGCGGAGUACGAUCGAGUGUACAGUGAACAAUGCUAGGGAGAGCUGCCUAUAUGGAAGAGCCCUAAUGUGUAAAAUUAAUUUUAGUAGUGCUAUCCCCAUGUGAUUUUAAUAGCUUCUUAGGAGAAUGACAAAA
B2: binds (NEIL2 (rNEIL2) [3]).
